This assay deals with T1, Recombinant human Prominin-1 with C-terminal FLAG-tag, forcedly expressed on DG44 cells (human, UniProt O43490 20-865).
T1 construct: whole, on cells; Expressed in DG44 cells; also called Prominin-1 recombinant protein; cells forcedly expressing Prominin-1; not shown: FLAG-tag artificially added to the C terminus
T1 sequence (looked up): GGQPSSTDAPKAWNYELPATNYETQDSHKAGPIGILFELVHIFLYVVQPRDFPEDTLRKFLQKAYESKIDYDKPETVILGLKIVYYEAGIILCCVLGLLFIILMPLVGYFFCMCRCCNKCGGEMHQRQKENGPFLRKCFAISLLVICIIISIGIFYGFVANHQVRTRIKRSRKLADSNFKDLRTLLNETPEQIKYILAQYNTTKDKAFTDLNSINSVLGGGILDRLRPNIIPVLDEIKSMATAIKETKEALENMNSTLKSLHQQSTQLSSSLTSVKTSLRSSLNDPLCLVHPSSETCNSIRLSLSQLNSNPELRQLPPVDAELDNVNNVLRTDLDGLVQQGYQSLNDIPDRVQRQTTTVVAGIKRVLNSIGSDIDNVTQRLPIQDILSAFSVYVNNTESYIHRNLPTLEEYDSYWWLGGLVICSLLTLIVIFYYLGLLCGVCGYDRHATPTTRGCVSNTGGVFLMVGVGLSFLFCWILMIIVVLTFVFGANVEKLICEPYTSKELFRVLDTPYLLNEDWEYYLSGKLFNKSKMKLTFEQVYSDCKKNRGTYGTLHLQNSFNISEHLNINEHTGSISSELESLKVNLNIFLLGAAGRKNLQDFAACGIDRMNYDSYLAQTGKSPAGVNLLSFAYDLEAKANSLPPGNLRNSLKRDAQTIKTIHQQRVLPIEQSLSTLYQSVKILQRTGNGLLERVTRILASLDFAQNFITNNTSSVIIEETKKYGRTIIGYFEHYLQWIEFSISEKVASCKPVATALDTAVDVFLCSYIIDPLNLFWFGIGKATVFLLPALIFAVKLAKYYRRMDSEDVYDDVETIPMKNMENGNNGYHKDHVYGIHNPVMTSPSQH
Nature of the assay: flow cytometry on DG44 cells forcedly expressing FLAG-tagged human Prominin-1. On the technique in general: In flow cytometry, cells or beads pass a laser one at a time.

B1: AC133.1 antibody (mouse IgG1, produced by hybridoma HB-12346) (antibody, V domains shown)
VH: QVQLQQSGAELVRPGASVKLSCKASGYTFSDFEMHWVKQTPVHGLEWIGDIDPGTGDTAYNLKFKGKATLTTDKSSSTAYMELRSLTSEDSAVYYCTLGAFVYWGQGTLVTVSA
VL: DVVVTQTPLSLPVSFGDQVSISCRSSQSLANSYGNTYLSWYLHKPGQSPQLLIYGISNRFSGVPDRFSGSGSGTDFTLKISTIKPEDLGMYYCLQGTHQPYTFGGGTKLEIKR
notes: The rest is mouse IgG1 heavy chain and Ig kappa light chain; Purified from hybridoma supernatant on Protein G; also called AC133 antibody; A133.1 antibody
With B1, the binding result is listed as “binds”.

For the origin of these results see patent US20100209439A1 (FORERUNNER PHARMA RESEARCH, published 2010).
